Test results taken from article PMC12004944.

Molecular target: N-terminal six-histidine-tagged PepV (H6-PepV) (S. aureus) (UniProt Q2FXH9)
Experiment: pull-down; purified His-tagged bait (H6-PepV or SecA-H6) incubated 1 h at 4°C with cleared lysate of S. aureus RN4220 WT or Δspa, then Ni-NTA resin; immunoblot with αSecA and αPepV sera

UniProt Q2FXH9, sequence (Q2FXH9 whole entry): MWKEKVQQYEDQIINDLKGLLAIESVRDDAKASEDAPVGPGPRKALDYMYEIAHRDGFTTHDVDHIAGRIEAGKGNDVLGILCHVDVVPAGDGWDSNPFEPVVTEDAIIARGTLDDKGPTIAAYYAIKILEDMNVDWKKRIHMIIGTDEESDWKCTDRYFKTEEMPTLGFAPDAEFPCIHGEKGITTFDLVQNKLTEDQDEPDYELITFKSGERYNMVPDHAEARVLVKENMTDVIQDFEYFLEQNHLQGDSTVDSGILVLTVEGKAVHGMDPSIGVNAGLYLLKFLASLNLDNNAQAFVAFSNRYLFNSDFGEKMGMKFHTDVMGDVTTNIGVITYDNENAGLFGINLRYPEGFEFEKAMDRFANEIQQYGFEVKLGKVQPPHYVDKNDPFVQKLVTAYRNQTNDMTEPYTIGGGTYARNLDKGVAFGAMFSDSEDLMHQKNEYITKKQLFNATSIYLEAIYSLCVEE

“SecA (endogenous, S. aureus RN4220) (from UniProt Q2YSH6 1-843) (natural protein)” gave a SecA eluted from H6-PepV beads with Δspa lysate, percent less than with WT lysate of 30 % less.
